B1: α-dystroglycan lacking N-terminal domain (M-α-DGN KO) 317-653 (protein)
chain: TPVTAIGPPTTAIQEPPSRIVPTPTSPAIAPPTETMAPPVRDPVPGKPTVTIRTRGAIIQTPTLGPIQPTRVSEAGTTVPGQIRPTLTIPGYVEPTAVITPPTTTTKKPRVSTPKPATPSTDSSTTTTRRPTKKPRTPRPVPRVTTKAPITRLETASPPTRIRTTTSGVPRGGEPNQRPELKNHIDRVDAWVGTYFEVKIPSDTFYDNEDTTTDKLKLTLKLREQQLVGEKSWVQFNSNSQLMYGLPDSSHVGKHEYFMHATDKGGLSAVDAFEIHVHKRPQGDKAPARFKARLAGDPAPVVNDIHKKIALVKKLAFAFGDRNCSSITLQNITRGSI
modifications: short non-elongated matriglycan O-glycosylation
B2: α-dystroglycan (α-DG) (protein)
chain: HWPSEPSEAVRDWKNQLEASMHSVLSDFQEAVPTVVGIPDGTAVVGRSFRVSIPTDLIASSGEIIKVSAAGKEALPSWLHWDPHSHILEGLPLDTDKGVHYISVSAARLGANGSHVPQTSSVFSIEVYPEDHNEPQSVRAASSDPGEVVPSACAADEPVTVLMVILDADLTKMTPKQRIDLLNRMQSFSEVELHNMKLVPVVNNRLFDMSAFMAGPGNAKKVVENGALLSWKLGCSLNQNSVPDIRGVETPAREGAMSAQLGYPVVGWHIANKKPTLPKRLRRQIHATPTPVTAIGPPTTAIQEPPSRIVPTPTSPAIAPPTETMAPPVRDPVPGKPTVTIRTRGAIIQTPTLGPIQPTRVSEAGTTVPGQIRPTLTIPGYVEPTAVITPPTTTTKKPRVSTPKPATPSTDSSTTTTRRPTKKPRTPRPVPRVTTKAPITRLETASPPTRIRTTTSGVPRGGEPNQRPELKNHIDRVDAWVGTYFEVKIPSDTFYDNEDTTTDKLKLTLKLREQQLVGEKSWVQFNSNSQLMYGLPDSSHVGKHEYFMHATDKGGLSAVDAFEIHVHKRPQGDKAPARFKARLAGDPAPVVNDIHKKIALVKKLAFAFGDRNCSSITLQNITRG
B3: α-dystroglycan (α-DG) (protein)
chain: HWPSEPSEAVRDWKNQLEASMHSVLSDFQEAVPTVVGIPDGTAVVGRSFRVSIPTDLIASSGEIIKVSAAGKEALPSWLHWDPHSHILEGLPLDTDKGVHYISVSAARLGANGSHVPQTSSVFSIEVYPEDHNEPQSVRAASSDPGEVVPSACAADEPVTVLTVILDADLTKMTPKQRIDLLNRMQSFSEVELHNMKLVPVVNNRLFDMSAFMAGPGNAKKVVENGALLSWKLGCSLNQNSVPDIRGVETPAREGAMSAQLGYPVVGWHIANKKPTLPKRLRRQIHATPTPVTAIGPPTTAIQEPPSRIVPTPTSPAIAPPTETMAPPVRDPVPGKPTVTIRTRGAIIQTPTLGPIQPTRVSEAGTTVPGQIRPTLTIPGYVEPTAVITPPTTTTKKPRVSTPKPATPSTDSSTTTTRRPTKKPRTPRPVPRVTTKAPITRLETASPPTRIRTTTSGVPRGGEPNQRPELKNHIDRVDAWVGTYFEVKIPSDTFYDNEDTTTDKLKLTLKLREQQLVGEKSWVQFNSNSQLMYGLPDSSHVGKHEYFMHATDKGGLSAVDAFEIHVHKRPQGDKAPARFKARLAGDPAPVVNDIHKKIALVKKLAFAFGDRNCSSITLQNITRG
modifications: matriglycan O-glycosylation (full-length)

Biological target: laminin-111 (Mus musculus, UniProt P19137)
Assay: solid-phase binding assay

Binder | Kd [nM]
B1 | 2.32
B2 | 1.9
B3 | 0.966

From paper PMC9917425 (2023)
